From the nanobody polyreactivity screen of Harvey et al. (2022)

Assay: yeast display, Sf9 membrane polyspecificity reagent, FACS + sequencing; frameworks hold sequencing errors
Method in brief: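 In a synthetic yeast display library (Saccharomyces cerevisiae BJ5465), nanobody expression was induced with galactose for 36–48 hours. FACS gates were set low and high (top ~1%) using anti-HA fluorescence for expression and streptavidin fluorescence for binding of the Sf9 membrane reagent. Each polyreactivity label is drawn from the gate of origin.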

| Sequence | polyreactivity (PSR sort gate) |
| --- | --- |
| QVQLVESGGGLVQAGGSRLSCAASGLIFIWYTMGWYRQAPGKERELVAAIDSSGGNTYYADSVKGRFTISRDNAKNTVYLQMNSLKPEDTAVYYCAKDVGHGAGNLMGYWGQGTQVTVSS | low polyreactivity |
| QVQLVESGGGLVQAGGSLRLSCAASGSIFYTNAMGWYRQAPGKERELVATITSSTGSTNYADSVKGRFTISRDNAKNTVYLQMNSLKPEDTAVYYCAKRDCYWVYYQMDYWGQGTQVTVSS | low polyreactivity |
| QVQLVESGGGLVQAGGSLRLSCAASGSIFPGNAMGWSRQAPGKEREFVAAISWSGGSTYADSVKGRFTISRDNAKNTVYLQINSVKPEDTAVYYCAAVRRYLKAAYGYWGQGTKVTVSS | low polyreactivity |
| QVQLVESGGGLVQAGGSLRLSCAACGSISVYNAMGWYRQAPGKERELVAAISWSGGRTSYADSVKGRFTISRDNAKNTVYLQMNSLKPEDTAVYYCAADELTVMWDEDYWGQGTQVTVSS | low polyreactivity |
| QVQLVESGGGLVQAGGSLRLSCAASGSIIKRNAMGWYRQAPGKERELVASISSGGSTKYADSVKGRFTISRDNAKNTVYLQKNSLKPEDTAVSYCAKRSSQTRRAYDYGGQGTQVTVSS | low polyreactivity |
| QVQLVESGGGLVQAGGSLRLSCAASGNTFYAYAMGWYRQAPGKERELVASITLSGDSTYYADSVKGRFTISRDNAKNSVYLQMSSLIPEDTAVYYCAGVYTYPLGYYHYTYDYWGQGTQVTVSS | low polyreactivity |
| QVQLVESCGGLVQAGGSLRLSCAASGGIFGYYAMGWYRQAPGKEREFVAAITLSGGRSYYADSVKGRFTISRDNAKNTVYLQMNSLKPEDTAVYYCNAYPYYLVRNMDSWGQGTQVTVSS | high polyreactivity |
| QVQLVESGGGLVQAGGTLRLSCAASGSTFIGNAMGWYRQAPGKVRELVATITSGDSKYADSVKGRFTISRDNAKNTVYLQMNSLKPEDTAVYYCNADPWDIGSTFELDYWGQGTQVTVSS | low polyreactivity |
| QVQLVESGGGLVQAGGSLRLSCAASGSTFIKYTMGWYRQAPGKERELVAAISVRGGSTTYADSVKGRFTISRDNAKNTVYLQRNSLKPEDTAVYYCAKDHYYAGTWRYGYWGQGTQVTVSS | high polyreactivity |
| QVQLVESGGGLVQAGGSLRLSCAASGSTFYYNAMGWYRQAPGKEREFVAGITSSGAGTYYADSVKGRFTISRDNAKNTVYLQMNSLKPEDTAVYYCAAVYRWEGRTYRYGYWGQGTQVTVSS | high polyreactivity |
| QVQLVESGGGLVQAGGSLRLSCAASGFTLYGNVMGWYRQAPGKERELVASISWSGGNTYYADSVKGRFTISRDNAKNTVYLQMNSLKPEDTAVYYCNANYYDKYGYWGQGTQVTVSS | low polyreactivity |
| QVQLEESRGGLVQAGGSLRLSCAASGSIFGYNTMGWYRQAPRKERELVAAISKSGGSTYYADSEKGRFTLSRDTEKNTVYLQMNSLKLEDTAVYYCATYAKQLSPYYYWGQGIQVTVSS | high polyreactivity |
| QVQLEESGGGLVQAGGSLRLSCAASGSTFKLYTMGWYRQAPGKEREFVATITSGGRTNYADSVKGRFTISRDNAKNTVYLQMNSLKPEDTAVYYCAATWLRVKYRFKGYDYWGQGTQVTVSS | high polyreactivity |
| QVQLVESGGGLVQEGGSLRLSCAASGSTFSSYAMGWYRQAPGKERELVAAISWSGGSTYYADSVKGRFTISRDNAKNTVYLQMISLKPEDTAVYYCAAYTYSFRANHDYWGQGTQVTVSS | high polyreactivity |
| QVQLVESGGGLVQAGGSLRLSCAASGSIFPPYAMGWYRQAPGKERELVATITIRGGSTYYADSVKGRFTISRDNAKNSVYLQMNSLKPEDTAVYYCAADYTKYYRRYYYWGQGTQVTVSS | high polyreactivity |
| QDQLVESGGALGQAGGSLRLSCAASGSIFFYYAMGCYRQAPGKEREFVAHITSSEASTHYADSVKGRFTISRDTAKNTVYLQMNSLIPEDTAVYYCAADRYPGHRERDFWGQGSQVTVSS | low polyreactivity |
| QVQLVESGGGIVQAGGSLRLSCAGSGSIVSGYTMGWYRQEPGKERELVAAITRSGGRTYYADSVKGRFTISRDYAKNTVYLQMNSLKPEDTSVYYCAAVDRRGANYNYWGQGTQVTVSS | high polyreactivity |
| QVQLVESGGGLVQAGGSLRLSCAASGRTFCRYAMGWYIQAPGKERELVASISVSGGGTYYADSVKGRFTISRDNAKNTVFLQMNSLKPQDTAVYYCAARPVYYRYRRDYWGQGTHVTVSS | high polyreactivity |
| QVQLVESGGGLVQAGGSLRLSCAASGSTFDYYDMGWYRQAPGKERELVAAISYSGTSTYYADSVKGRFTISRDNAKNTVYLQMNSLKPEDTAVYYCAKVFPDWYWYDYWGQGTQVTVSS | low polyreactivity |
| QVQLVESGGGLVQAGGSLRLSCAASGRTFGVNTMGCYRQAPGKEREFVASISTSGGSTYADSVNGRFTISRDNAKNTVYLQMNSLKPEDTAVYYCAKDTDAVYDEYDSWGQGTQVTVSS | low polyreactivity |
| QVQLVESGGGLVQAGGSLRLSCAASGRTFRTYAMGWYRQAPGKERELVAVITVNSASTYYADSVKGRFTISRDYAKNTVYLQMKSLKPEDTAVYYCADYFIYGYWGQGTQVTVSS | low polyreactivity |
| QVQLVESGAGLVQAGGSLRLSCASSGFILTGYTMGWYRQAPGKERELVAAISWSGARTYYADSVKGRFTISRDNAKNTVYLQMNSLKPEDTAVYYCARDYYRPTQRYDYWGQGTQVTVSS | high polyreactivity |

| Sequence | polyreactivity (PSR sort gate) |
| --- | --- |
| QVQIVESGGGLVQAGGSLRLCCAASGRTFYGSKMGWYRQAPGKESELVAAISRNGASTFYADSVKRRFTISRDNAKKSVYLQINILKPEYTGVYYFNARSWRHTDTSFEYWGQGTQVTVSS | high polyreactivity |
| QVQLVESGGGLVQAGGSLRLSCAASGRIFYNYVMGWYRQAPGKERELVAAISSSGGSTYYADSVKGRFTISRDNAKNSVYLQMNSLKPEDTAVYYCSAETYQLTWVLYYYWGQGTQVTVSS | high polyreactivity |
| QVQLVESGGGLVQAGGSLRLSCAASGRTFRDYAMGWYRQEPGKESELVAAITWIGGTTYYADSVKGRFTISRDNAKNTVYLQMNSLKPEDTAVYYCAKKRYHWYGRYYYWGQGTQVTVSS | high polyreactivity |
| QVQLVESGGGVVQAGGSLRLSCAASVSIFDDYAMGWYRQAPGKERELVASISRTGRTYYADSVKGRFTISRDNAKNTVYLQMNSLKPEDTAVYYCAATRYAPYRRYYYWGQGTQVTVSS | high polyreactivity |
| QVQLVESGGGIVQAGGSLRLSCAASGRTFKYYAMGWYRQAPGKERELVAAITSTGGSTYYADSVKGRFTISRDNAKNTVYLQMNSLKPEDTAVYYCNRYTQYRDRSDNHWGQGTQVTVSS | high polyreactivity |
| QVQLVESGGGLVQAGGSLRLSCAASGSIFDPYAMGWYRQAPGKEREFVAALSWSGGSTYYADSVKGRFTISRDNAKNTVYLQMNSLKPEDTAVYYCATDWGDPYGYDYWGQGTQVTVSS | low polyreactivity |
| QVQLVESGGGLVQAGGSLRLSCAASGSIFTFYTMGWYRQAPGKERELVATIRWSVGSTYYADSVKGRFTISRDNAKNTVYLQMNSLKPEDTAVYYCAADSQWSYPDYPGEYAYDYWGQGTQVSVSS | low polyreactivity |
| QVQIEESRVGLVQAGGSLRLSCAASGSIIYENMGWYRPAPGKERELVASISWSGTSTYADSVKGRFTMTRDNAKTTVYLLMNSLKPEDTAVYSCAAYPYPFYQSKYLGIGYGFWGQGTQVTVSS | high polyreactivity |
| QVQLVESGGGLVQAGGSLRLSCAASGSTFPLNVMGWYRQAPGKERELVAAISSSGGRTYYADSVKGRFTISRDNAKNTVYLQMNSLKPEDTAVYYCNARWRKNLSGRVFRYDYWGQGTQVTVSS | high polyreactivity |
| QVQLLESGGGLVQAGGSLRLSCAASGSIFRGYAMGWYRKAPGKERELVAAINWSGSSTYYADSVKGRFTISRDNAKKTVYLQMNSLKPEDTAVYYCARVYYNRNLGGDYWGQGTQVTVSS | low polyreactivity |
| QVQLVESGGGLVQAGGSLRLSCAASGRSFWRNAMGWYRQAPGRERELVAAMSRGGSTNYADSVKGRFTMSRDNAKKTVYLPMNSLKPEDTAVYYCAARYYYRYNYWRQGTQVTVSS | high polyreactivity |
| QLQLAESGGGLVQAGGSLRLSCAASGSTFEINAMGWYRQAPWKERELVAAISKRGGNTYYADSVKGRFTISRDNAKNTVYLQMNSLKPEVTAVYYCSADSDSHYFFYVRWVGERYEYWGQGTQVTVSS | high polyreactivity |
| QDQLVESGGGLVQAGGSLRLSCAASGRIFRGNAMGWYRQAPGKEREMVAAISRRSGSTYYADSVKGRFTISRDNAKNTVYLQMNSLKPEDTAVYYCAATSSLGDFRYDYWGQVTQVTVSS | high polyreactivity |
| QVQIVESGGGLVQAGGSLRLSCAASGTFTYYAMGWYRQAPGKERELVAAITWRGGNTYYADSVKGRFTISRDNAKNTVYLQKNSLKPEDTEVYYCAASLWPDYEYDYWGQGTQVTVSS | low polyreactivity |
| QDQLVESGGGLVQAGGSLRLSCAASGSTFSYNAMGWYRQAPGKERELVAAIRWSGGSTYADSVKGRFTISRDNAKNTVYLQMNSLNPEDTAVYYCAARNFGYPELRYYYWGQGTQVTVSS | high polyreactivity |
| QVQLVESGGGLVHAGGSLRLSCAACGTTFINYAMGWYRQAPGKVRELVAVITSDDGSTYYADSVKGRFTISRDNAKNTVYLQMNSLKPEDTAVYYCAADYYDQRYRPGPWYDYWGQGTQVTVSS | low polyreactivity |
| QVQLGESGGGIVQAGGSLRLSCAASGIIFYPYTMGWYRQAPGKERELVAAINSGGSTYYADSVKGRFTISRDNAKNTVYLQMNSLKPEDTAVYYCAAEEALDWYDDWIVSYDYWGQGTQVTVSS | low polyreactivity |
| QVQLVESGGGLVQAGGTLRLSCAASGRIFGVYAMGWSRQAPGKERELVAAIRWSGGSTYYADSVKGRFTISRDNAKTTVYLQMNSLKPEDTAVYYCAAVGGVTRGNQYVRYGYWGQGTQVTVSS | high polyreactivity |
| QDQLVESGGGLVQAGGSLRLRCAASGLILANYAMGCYRPAPVKERELVAAISSSGGSKYYADSVKGRFTISRDNAKHTVYFQMNSLKPEDTAVYDCAAYPLYRRRWTGDYWGQGTQVTVSS | high polyreactivity |
| QVQLVESGGGLVQAGGSLRLSCAASGLIFKSYAMGWYRQAPGKERELVATISSSGSTNYADSVKGRFTISRDNAKNTVYLQMNSLKPEDTAVYYCNADDEVWWWIYDYWGQGTQVTVSS | low polyreactivity |
| QVQLVESGGGLVQAGGSLRLSCAASGFTFTTYGMGWSRQAPWKERELVAAISWSGGSTYYADSVKGRFTISRDNAKNTVYLQMNSLNPEYTAVYYCAKDRTYQASTLGYWGQGTQVTVSS | low polyreactivity |
